Reference: the supplement of paper PMC10567573

B1: KLHL14 (parent)
chain: CAVLDDSIYLVGGYSWSMGAYKSS
B2: RHOBTB3 (parent)
chain: QLQSMPSRELASMNLDIVDLLKKA

Variants of: B1
Assay: protein stability index of a GFP-peptide fusion (GPS, HEK-293T) (PSI 1-6); higher = more stable
Details: c terminus: a fixed tail appended
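Note: lentivirally expressed fusions sorted by FACS into six bins by GFP to DsRed ratio, PSI derived from sequencing read proportions per bin multiplied by bin number.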

Protein stability index: each site, then its substitutions
G13: Y 1.73
A2: D 1.04; S 1.59; P 1.61
L4: A 1.36; I 2.15
W16: M 3.09; V 1.03; G 1.95; D 2.14; F 2.87; N 1.89
S7: A 2.04; C 3.58; V 2.46
A20: C 2.64; F 2.88
Y9: N 1.56
G12: V 2.65; M 2.24
L10: N 1.98; K 2.05
I8: G 1.22; W 1.8; T 3.78
Y21: P 2.44; S 2
M18: H 2.5; R 2.11
D6: S 2.61; W 3.66; Y 1.86
C1: H 1.74
G19: I 2.9; K 2.23; F 3.41; N 2.06
Y14: E 1.69; Q 2.03; K 1.73
S24: C 2.32; G 1.65; Y 3.04; T 3.12
V3: S 2.3; F 2.85; G 1.48
V11: M 3.05; Q 1.79; E 2.33; G 1.93
D5: K 3.02; F 3.77; I 2.19
S17: V 1.96; H 1.98

Variants of: B2
Assay: as above
Details: c terminus: a fixed tail appended

Protein stability index: each site, then its substitutions
N14: Y 2.68; I 2.61; M 2.63; W 2.37; R 2.58; F 1.79; C 2.16; E 3.62; H 3.01; V 1.9; Q 3.3; D 3.92; K 3.75; S 3.31; T 3.27; A 2.87; L 2.6; P 3.78; G 3.68
A24: S 3.47; D 4.65; L 3.56; I 2.98; Y 3.35; V 3.34; G 3.92; K 3.54; M 3.39; R 3.11; F 3.41; W 4.13; Q 3.49; P 3.92; H 3.77; E 4.56; N 4.14; T 3.95; C 3.14
L20: F 3.42; G 4.62; T 3.96; W 3.51; S 4.06; D 4.68; A 3.52; R 3.94; Q 3.9; N 3.71; C 3.86; V 2.9; Y 3.95; P 4.31; E 4.84; I 3.42; K 4.33; M 3.75; H 3.63
K22: L 2.07; N 4.23; M 2.9; G 3.75; R 3.21; Y 2.61; A 3.01; E 4.71; H 3.67; P 3.57; V 2.15; W 2.04; T 3.74; S 3.55; C 2.76; F 2.29; D 4.32; Q 3.93; I 2.32
L10: R 3.71; Q 3.63; S 4.49; H 3.24; W 3.25; K 3.02; P 3.83; F 3.41; G 2.62; Y 3.88; I 2.95; V 3.6; M 3.58; T 4.32; N 3.33
A11: W 2.79; E 3.73; V 3.27; N 3.29; C 3.17; P 3.27; L 3.11; H 3.21; Q 3.37; G 3.19; S 3.54; T 3.28; R 2.81; I 2.87; K 2.72; M 3.34; Y 2.86; D 3.75; F 2.76
L21: C 3.47; I 3.56; G 3.91; V 4.12; M 4.02; K 3.01; Q 3.87; T 3.74; P 3.84; H 4.33; D 4.67; W 3.35; Y 2.96; R 3.93; F 3; A 3.47; N 3.27; S 4.12
I17: Q 4.55; G 3.46; D 4.23; H 3.94; F 3.63; N 3.88; V 3.89; C 3.87; M 3.39; L 3.34; P 3.39; T 3.58; K 3.23; R 3.4; A 3.63; Y 3.74; W 3.45; S 4.37
D19: L 1.48; E 3.37; A 3; V 2.16; N 3.15; C 2.96; P 2.83; I 1.86; Y 2.28; M 2.09; S 3.45; G 2.52; T 2.85; F 2.01; K 3.08; W 2.16; R 2.99; H 2.93; Q 3.58
S12: I 3.02; G 3.9; V 3.95; M 3.24; H 3.06; E 4.26; C 3.33; Q 4.1; L 3.54; A 3.28; W 2.5; N 3.06; F 3.22; P 4.11; Y 2.95; R 2.13; D 3.68; K 3.63; T 3.75
V18: G 3.65; D 3.96; M 3.41; E 4.19; W 2.61; C 3.69; K 3.21; Q 3.89; R 2.73; H 3.5; I 3.28; P 3.21; S 4.08; F 2.39; L 3.37; N 3.9; T 3.77; A 4.01; Y 2.6
D16: L 2.63; V 2.22; Q 3.57; A 2.15; Y 2.62; E 3.63; C 3.25; T 3.05; F 2.09; P 2.75; S 3.23; N 2.88; I 2.67; G 3.63; R 2.5; K 2.91; H 2.76; M 2.53
L15: Y 3.87; A 3.67; M 3.86; F 3.44; W 2.88; S 3.79; Q 3.72; G 3.99; D 3.23; H 3.98; K 4.45; I 3.66; E 3.94; V 3.35; N 3.45; R 3.58; C 4.27; P 4.48; T 4.17
K23: M 2.32; D 4.03; H 3.05; S 3.05; A 2.92; F 2.33; Q 3.36; R 3.52; T 3.4; P 3.22; V 2.81; Y 2.71; G 3.16; N 3.97; E 3.69; C 2.57; W 1.3; L 2.58; I 2.48
M13: L 3.52; G 3.76; Q 3.79; I 2.39; W 2.88; C 3.74; H 3.59; A 4; P 4.01; R 3.61; V 3.7; T 3.38; F 2.97; N 4.17; Y 3.17; S 3.35; K 3.8; D 3.96; E 4.19
